# Results: patent US20250121082A1 (SHANDONG BOAN BIOTECHNOLOGY, published 2025)
# Like-named read-outs stand apart in the source and are kept apart here.
# T1: CD228 on cells stably expressing exogenous CD228 gene (MC38-CD228, A375-CD228, A549-CD228) (UniProt P08582 20-709)
# T1 sequence (looked up): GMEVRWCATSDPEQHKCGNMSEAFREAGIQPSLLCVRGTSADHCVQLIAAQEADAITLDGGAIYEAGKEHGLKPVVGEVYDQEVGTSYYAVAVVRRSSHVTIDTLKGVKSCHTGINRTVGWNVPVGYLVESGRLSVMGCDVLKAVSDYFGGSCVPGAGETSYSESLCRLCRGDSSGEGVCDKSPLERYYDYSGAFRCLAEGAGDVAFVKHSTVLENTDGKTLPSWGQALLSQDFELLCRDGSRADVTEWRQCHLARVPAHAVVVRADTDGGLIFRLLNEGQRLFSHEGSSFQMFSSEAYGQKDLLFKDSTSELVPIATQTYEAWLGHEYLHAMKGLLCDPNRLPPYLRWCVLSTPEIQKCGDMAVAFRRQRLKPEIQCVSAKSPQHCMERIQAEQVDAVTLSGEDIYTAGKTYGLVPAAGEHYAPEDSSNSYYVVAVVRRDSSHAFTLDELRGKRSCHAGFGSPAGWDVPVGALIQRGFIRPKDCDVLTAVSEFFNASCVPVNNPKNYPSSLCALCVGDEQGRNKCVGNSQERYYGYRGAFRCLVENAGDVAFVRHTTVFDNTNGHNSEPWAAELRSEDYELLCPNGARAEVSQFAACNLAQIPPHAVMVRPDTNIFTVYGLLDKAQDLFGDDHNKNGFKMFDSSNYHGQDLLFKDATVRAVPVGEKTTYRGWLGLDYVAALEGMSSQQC
# T2: CD228 protein on human melanoma SK-MEL-5 cells (human, UniProt P08582 20-709)
# T2 sequence (looked up): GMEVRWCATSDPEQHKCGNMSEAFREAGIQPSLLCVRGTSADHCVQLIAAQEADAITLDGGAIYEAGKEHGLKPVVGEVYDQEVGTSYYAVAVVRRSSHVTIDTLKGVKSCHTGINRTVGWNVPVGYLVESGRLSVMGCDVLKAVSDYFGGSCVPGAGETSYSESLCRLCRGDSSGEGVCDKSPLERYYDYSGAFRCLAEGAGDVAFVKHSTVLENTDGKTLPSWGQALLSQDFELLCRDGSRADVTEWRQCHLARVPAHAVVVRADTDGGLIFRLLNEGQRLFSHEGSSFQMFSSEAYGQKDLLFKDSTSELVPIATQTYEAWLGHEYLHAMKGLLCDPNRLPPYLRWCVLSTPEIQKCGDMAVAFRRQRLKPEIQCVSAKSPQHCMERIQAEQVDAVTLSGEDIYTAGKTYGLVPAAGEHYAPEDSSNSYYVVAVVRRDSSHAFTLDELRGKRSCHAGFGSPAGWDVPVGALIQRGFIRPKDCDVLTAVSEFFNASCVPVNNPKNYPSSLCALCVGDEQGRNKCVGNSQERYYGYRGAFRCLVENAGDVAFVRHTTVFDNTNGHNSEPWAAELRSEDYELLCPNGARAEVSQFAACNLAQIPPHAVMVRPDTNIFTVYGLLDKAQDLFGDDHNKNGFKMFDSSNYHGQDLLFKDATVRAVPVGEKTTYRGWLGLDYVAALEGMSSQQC
# What was measured:
# Assay in all cases: cell-based or functional assay
# [1] = molecular target: T1, CD228 on cells stably expressing …
# [2] = molecular target: T1, CD228 on cells stably expressing …; remark: listed apart in the source
# [3] = molecular target: T2, CD228 protein on human melanoma …
binder,measurement,setting,value
"CA149-BNLD11 (antibody, human IgG1, kappa, V domains shown, BNLD11 linker-drug coupled to the TCEP-reduced antibody; sites not stated; BNLD11 linker-drug (MC-β-Ala-(glucuronide)PAB-MMAE) coupled to the TCEP-reduced antibody, average DAR 4.1; sites not stated) VH: EVQLVESGGGVVQPGRSLRLSCAASGFTFSSYAMHWVRQAPGKGLEWVAVISFDGSNKYYTDSVKGRFTISRDNSKNTLYLQMNSLRAEDTAVYYCAREVPYYYGSGPFDYWGQGTLVTVSS VL: EIVLTQSPATLSVSPGERATLSCRASQSVSSNLAWYQQKPGQAPRHLIDGASSRASGIPDRFSGSGSGTDFTLTISRLEPEDFAVYYCQQYGSSPPFTFGPGTKVDIKR","IC50 (ng/mL), inhibition of A375-CD228 cell proliferation",[1],61.8 ng/mL
same,"IC50 (ng/mL), inhibition of MC38-CD228 cell proliferation",[1],102 ng/mL
same,"IC50 (ng/mL), inhibition of A375-CD228 cell proliferation",[2],13.9 ng/mL
same,"IC50 (ng/mL), inhibition of A549-CD228 cell proliferation",[2],15.2 ng/mL
same,"IC50 (ng/mL), inhibition of SK-MEL-5 cell proliferation",[3],11.5 ng/mL
